Measured values reported in PMC10397247.

Tests used:
[1] = target: T1, 4H3628-bA; assay: two-hybrid library CCNG1;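 note: natural log of median RNA to DNA barcode read ratio; higher means stronger binding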
T1 chain: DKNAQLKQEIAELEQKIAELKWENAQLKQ

[2] = target: T2, 4H1899-bA; assay: two-hybrid library CCNG1;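 note: natural log of median RNA to DNA barcode read ratio; higher means stronger binding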
T2 chain: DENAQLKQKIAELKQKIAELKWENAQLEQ

[3] = target: T3, 4H1544-bA; assay: two-hybrid library CCNG1;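 note: natural log of median RNA to DNA barcode read ratio; higher means stronger binding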
T3 chain: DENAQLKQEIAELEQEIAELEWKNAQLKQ

[4] = target: T4, 4H3974-bA; assay: two-hybrid library CCNG1;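 note: natural log of median RNA to DNA barcode read ratio; higher means stronger binding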
T4 chain: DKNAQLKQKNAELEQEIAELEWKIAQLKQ

[5] = target: T5, 4H1338-bA; assay: two-hybrid library CCNG1;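 note: natural log of median RNA to DNA barcode read ratio; higher means stronger binding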
T5 chain: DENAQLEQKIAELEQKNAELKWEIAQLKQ

[6] = target: T6, 4H3613-bA; assay: two-hybrid library CCNG1;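 note: natural log of median RNA to DNA barcode read ratio; higher means stronger binding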
T6 chain: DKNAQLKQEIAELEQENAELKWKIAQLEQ

[7] = target: T7, 4H850-bA; assay: two-hybrid library CCNG1
T7 chain: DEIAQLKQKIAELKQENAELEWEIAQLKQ

[8] = target: T8, 4H1985-bA; assay: two-hybrid library CCNG1
T8 chain: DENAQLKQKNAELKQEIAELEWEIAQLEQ

[9] = target: T9, 4H570-bA; assay: two-hybrid library CCNG1
T9 chain: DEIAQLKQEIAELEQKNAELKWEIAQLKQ

[10] = target: T10, 4H1348-bA; assay: two-hybrid library CCNG1
T10 chain: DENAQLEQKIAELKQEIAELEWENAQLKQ

[11] = target: T11, 4H3817-bA; assay: two-hybrid library CCNG1
T11 chain: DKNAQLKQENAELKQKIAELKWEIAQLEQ

[12] = target: T12, 4H1449-bA; assay: two-hybrid library CCNG1
T12 chain: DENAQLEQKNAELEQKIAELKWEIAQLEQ

[13] = target: T13, 4H1373-bA; assay: two-hybrid library CCNG1
T13 chain: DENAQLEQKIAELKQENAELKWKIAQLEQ

[14] = target: T14, 4H1710-bA; assay: two-hybrid library CCNG1
T14 chain: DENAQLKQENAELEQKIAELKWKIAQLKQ

[15] = target: T15, 4H3858-bA; assay: two-hybrid library CCNG1
T15 chain: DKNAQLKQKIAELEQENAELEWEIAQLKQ

[16] = target: T16, 4H2211-AA; assay: two-hybrid library CCmax; conditions: mean of both orientations
T16 chain: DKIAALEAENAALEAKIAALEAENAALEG

[17] = target: T17, 4H2513-AA; assay: two-hybrid library CCmax; conditions: mean of both orientations
T17 chain: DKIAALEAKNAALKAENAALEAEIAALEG

[18] = target: T18, 4H481-AA; assay: two-hybrid library CCmax; conditions: mean of both orientations
T18 chain: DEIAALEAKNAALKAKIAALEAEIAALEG

[19] = target: T19, 4H3605-AA; assay: two-hybrid library CCmax; conditions: mean of both orientations
T19 chain: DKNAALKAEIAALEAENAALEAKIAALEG

[20] = target: T20, 4H1198-AA; assay: two-hybrid library CCmax; conditions: mean of both orientations
T20 chain: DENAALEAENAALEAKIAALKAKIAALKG

[21] = target: T21, 4H3625-AA; assay: two-hybrid library CCmax; conditions: mean of both orientations
T21 chain: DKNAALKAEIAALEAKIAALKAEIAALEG

[22] = target: T22, 4H369-AA; assay: two-hybrid library CCmax; conditions: mean of both orientations
T22 chain: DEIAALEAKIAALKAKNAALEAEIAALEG

[23] = target: T23, 4H1350-AA; assay: two-hybrid library CCmax; conditions: mean of both orientations
T23 chain: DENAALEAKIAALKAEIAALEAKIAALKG

[24] = target: T24, 4H4033-AA; assay: two-hybrid library CCmax; conditions: mean of both orientations
T24 chain: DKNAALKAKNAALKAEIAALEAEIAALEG

[25] = target: T25, 4H2614-AA; assay: two-hybrid library CCmax; conditions: mean of both orientations
T25 chain: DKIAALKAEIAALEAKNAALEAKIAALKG

[26] = target: T26, 4H2536-AA; assay: two-hybrid library CCmax; conditions: mean of both orientations
T26 chain: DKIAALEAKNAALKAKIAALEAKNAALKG

[27] = target: T27, 4H662-AA; assay: two-hybrid library CCmax; conditions: mean of both orientations
T27 chain: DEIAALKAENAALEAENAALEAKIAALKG

[28] = target: T28, 4H2726-AA; assay: two-hybrid library CCmax; conditions: mean of both orientations
T28 chain: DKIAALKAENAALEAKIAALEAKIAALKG

[29] = target: T29, 4H3922-AA; assay: two-hybrid library CCmax; conditions: mean of both orientations
T29 chain: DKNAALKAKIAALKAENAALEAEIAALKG

[30] = target: T30, 4H1103-AA; assay: two-hybrid library CCmax; conditions: mean of both orientations
T30 chain: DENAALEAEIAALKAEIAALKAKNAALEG

[31] = target: T31, 4H3664-AA; assay: two-hybrid library CCmax; conditions: mean of both orientations
T31 chain: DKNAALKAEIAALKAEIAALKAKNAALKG

[32] = target: T32, 4H2238-AA; assay: two-hybrid library CCmax; conditions: mean of both orientations
T32 chain: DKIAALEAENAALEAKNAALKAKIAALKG

[33] = target: T33, 4H327-AA; assay: two-hybrid library CCmax; conditions: mean of both orientations
T33 chain: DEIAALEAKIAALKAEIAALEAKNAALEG

[34] = target: T34, 4H1405-AA; assay: two-hybrid library CCmax; conditions: mean of both orientations
T34 chain: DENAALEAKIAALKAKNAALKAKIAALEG

[35] = target: T35, 4H55-AA; assay: two-hybrid library CCmax; conditions: mean of both orientations
T35 chain: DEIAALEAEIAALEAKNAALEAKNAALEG

[36] = target: T36, 4H629-AA; assay: two-hybrid library CCmax
T36 chain: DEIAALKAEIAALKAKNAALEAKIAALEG

[37] = target: T37, 4H1082-AA; assay: two-hybrid library CCmax
T37 chain: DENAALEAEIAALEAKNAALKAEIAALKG

[38] = target: T38, 4H2935-AA; assay: two-hybrid library CCmax; conditions: mean of both orientations
T38 chain: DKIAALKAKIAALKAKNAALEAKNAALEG

[39] = target: T39, 4H2608-AA; assay: two-hybrid library CCmax; conditions: mean of both orientations
T39 chain: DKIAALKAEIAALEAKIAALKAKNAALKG

[40] = target: T40, O11; assay: two-hybrid library CCNG1
T40 chain: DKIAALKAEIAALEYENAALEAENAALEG

[41] = target: T41, O13; assay: two-hybrid library CCNG1
T41 chain: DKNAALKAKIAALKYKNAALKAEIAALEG

[42] = target: T42, O2; assay: two-hybrid library CCNG1
T42 chain: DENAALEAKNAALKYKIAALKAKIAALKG

[43] = target: T43, O6; assay: two-hybrid library CCNG1
T43 chain: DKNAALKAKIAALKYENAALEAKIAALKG

[44] = target: T44, O7; assay: two-hybrid library CCNG1
T44 chain: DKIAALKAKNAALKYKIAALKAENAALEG

[45] = target: T45, O1; assay: two-hybrid library CCNG1
T45 chain: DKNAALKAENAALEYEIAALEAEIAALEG

[46] = target: T46, O12; assay: two-hybrid library CCNG1
T46 chain: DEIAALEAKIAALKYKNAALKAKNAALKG

[47] = target: T47, O8; assay: two-hybrid library CCNG1
T47 chain: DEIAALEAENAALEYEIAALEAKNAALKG

[48] = target: T48, O10; assay: two-hybrid library CCNG1
T48 chain: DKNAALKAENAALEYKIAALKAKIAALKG

[49] = target: T49, O15; assay: two-hybrid library CCNG1
T49 chain: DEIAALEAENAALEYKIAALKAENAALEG

[50] = target: T50, O4; assay: two-hybrid library CCNG1
T50 chain: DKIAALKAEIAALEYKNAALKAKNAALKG

[51] = target: T51, O16; assay: two-hybrid library CCNG1
T51 chain: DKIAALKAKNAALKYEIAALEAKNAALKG

[52] = target: T52, O3; assay: two-hybrid library CCNG1
T52 chain: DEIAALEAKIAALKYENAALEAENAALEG

[53] = target: T53, O9; assay: two-hybrid library CCNG1
T53 chain: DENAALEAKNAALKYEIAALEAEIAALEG

[54] = target: T54, O14; assay: two-hybrid library CCNG1
T54 chain: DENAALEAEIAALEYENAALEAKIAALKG

[55] = target: T55, O5; assay: two-hybrid library CCNG1
T55 chain: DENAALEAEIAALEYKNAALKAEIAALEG

[56] = target: T56, 4H3974-bH; assay: two-hybrid library CCNG1
T56 chain: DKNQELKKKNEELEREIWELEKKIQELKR

[57] = target: T57, 4H3858-bH; assay: two-hybrid library CCNG1
T57 chain: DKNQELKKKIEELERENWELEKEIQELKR

[58] = target: T58, 4H570-bH; assay: two-hybrid library CCNG1
T58 chain: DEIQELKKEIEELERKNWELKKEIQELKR

[59] = target: T59, 4H850-bH; assay: two-hybrid library CCNG1
T59 chain: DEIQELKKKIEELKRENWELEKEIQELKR

B1: 4H1338-bA (peptide)
chain: DENAQLEQKIAELEQKNAELKWEIAQLKQ
[1]
  interaction score: -0.607
[2]
  interaction score: -0.794
[3]
  interaction score: -0.0537
[4]
  interaction score: 1.12
[5]
  interaction score: -0.0383
[6]
  interaction score: 0.511
[7]
  interaction score: 1.4
[8]
  interaction score: 0.203
[9]
  interaction score: -0.499
[10]
  interaction score: -0.532
[11]
  interaction score: -0.561
[12]
  interaction score: -0.906
[13]
  interaction score: -0.825
[14]
  interaction score: -1.12
[15]
  interaction score: 1.87

B2: 4H1082-AA (peptide)
chain: DENAALEAEIAALEAKNAALKAEIAALKG
[16]
  interaction score: -0.726
[17]
  interaction score: -0.261
[18]
  interaction score: -1.09
[19]
  interaction score: 1.35
[20]
  interaction score: -0.589
[21]
  interaction score: -0.987
[22]
  interaction score: -0.173
[23]
  interaction score: 0.509
[24]
  interaction score: -0.637
[25]
  interaction score: 0.814
[26]
  interaction score: -1.58
[27]
  interaction score: -0.82
[28]
  interaction score: -0.0246
[29]
  interaction score: 2.18
[30]
  interaction score: -1.29
[31]
  interaction score: -1.83
[32]
  interaction score: -1.2
[33]
  interaction score: -0.938
[34]
  interaction score: -1.13
[35]
  interaction score: -1.89
[36]
  interaction score: -0.619
[37]
  interaction score: -0.277
[38]
  interaction score: -1.5
[39]
  interaction score: 1.21

B3: O1 (peptide)
chain: DKNAALKAENAALEYEIAALEAEIAALEG
[40]
  interaction score: -2.38
[41]
  interaction score: -1.26
[42]
  interaction score: 1.45
[43]
  interaction score: -2.86
[44]
  interaction score: -2.15
[45]
  interaction score: -2.12
[46]
  interaction score: -2.35
[47]
  interaction score: -2.46
[48]
  interaction score: -1.12
[49]
  interaction score: -2.03
[50]
  interaction score: -2.08
[51]
  interaction score: -2.54
[52]
  interaction score: -2.08
[53]
  interaction score: -1.83
[54]
  interaction score: -2.4
[55]
  interaction score: -2.09

B4: 4H3858-bH (peptide)
chain: DKNQELKKKIEELERENWELEKEIQELKR
[56]
  interaction score: -0.677
[45]
  interaction score: -0.992
[57]
  interaction score: 1.05
[58]
  interaction score: 1.32
[59]
  interaction score: -0.759
